Measurements: patent publication US20230355708A1 (published 2023)
Where two headings read alike, the source gives them in different places.

What was measured:
Yu2 gp120 [1] = test: SPR
Yu2 gp120 [2] = test: SPR; remark: listed apart in the source

B1: CVN (other)
chain: LGKFSQTCYNSAIQGSVLTSTCERTNGGYNTSSIDLNSVIENVDGSLKWQPSNFIETCRNTQLAGSSELAAECKTRAQQFVSTKINLDDHIANIDGTLKYE
In the case of B1, the Kd (Yu2 gp120 [1]) is reported as 622 pM and the Kd (Yu2 gp120 [2]) is reported as 622 pM.
